US20180280412A1

Biological target: Ub-AMC substrate

## purified 26S proteasome (enzyme)
  DUBs activity on Ub-AMC substrate: 3 fold
